Experimental data taken from the DeepSol protein solubility set.

Assay: soluble on expression in E. coli; label from the status in PepcDB or PDB records

| Sequence | soluble on expression in E. coli |
| --- | --- |
| MSLFQITKSKLRFPLSTFTKRYSSFQAAKSVIDKAAIDGELRVFIVSGEVSGDNIGSRLMSSLKKLSPLPIRFNGVGGSLMCKKGLNSLFPMEDLAVMGVWELLPHLYKFRVKLKETIDAAVKFKPHVVVTVDSKGFSFRLLKELRGKQHKTCFIKLVRENHEGHHHHHH | not soluble |
| MSDYAESYVSDCEVDPEELKNQSLFDKPRGVPRWLGKPHNSVKERLHNSVKDRTFIQKTVSSSEPLSRNAMDRIEASLTDNLNLDVVYSLNKKNRWQDAKTTFLLAGAPENVNAEVVEKNGLAQFGFIYPEKSTFAVHSRVLNKENKQGEFEIRSAITSSARGQDYSNFLPNTREFSKKANAKVMTLRSEEVDEDSKRQPTVSYNIYKTHRSQDVVGKEMFKAKVVSKSRRHRQNKKVDMENYDDLDEEFEDDEDEVVDSHRPTGVFDLAAFKVRTQSKQAHPKNRKDSELSYDMVDYDELETGSEYSQQFNVQEYLNQEGYTFIQADVTFVKLTEPFEDQINQLRLEGDLRVKDLQKNQYLIDISKRCQPNGTTQDGETTAVIVLTHLKHKTYNMIFNSTIGADPIRRNGENLRKIVSSAPTVLEVITKISGDVAEDKQLISRIKTSEKFYGRPSTSVDWNDLSLQRATCPNQYDNATWANSEELSVVGGKLEWDDLVAMVKKENNLVTCYSSDDFCGFCNRKKKSFELFLIKSSSETKIKCTECLRNEFYREFIARRLPIDLQTETADEMEYLPIFIPLTLLNLYIRTVAETIYKDLGATGDFEKCPSCKSTIFFEEPGNENKTQNRSCPCGYSWCRDCKGVPHWPMNCENYAEWEKKWHLRYAMMNAQGTGTVTLLQFTCHCKTVYYCLLPTKRVNCPGCRESVNLETMNTMYRQFYYSYPPRYRKWEKQYHEENKDTDRHPYQPLAKVCWEIDKIPAIKASVIETCGAARDVRFDLKFRNRVIKQEQVLIKKSILTSEVLENILGTIPYLVENVTAWMHMSNHQDKNLKSILESMIADRKDLVYYLESENEIEIEKCVKILRAKIDSVVSIVEKNMKNC | not soluble |
| MLKKIERAQQLLKKEAAVFRCPTCHEPMHLEGVGLICQQRHQFDLSKKGTLYFLNHGVQTEYNKKMFTSRGKMIQSGMYAPVLNKIMHYLPQNKTVVDVGCGEGSFLAELSQAGLSGLKIGFDLSKEGIYLASNQPIDAFWCVADLTNLPFANEGLDTILNIFSPSHYQEFRRVLKADGTVIKIIPEENYLKELRAAFYPNDEKKQSYSNQKVVQRFAEELAVEVDERITYCFDIPEERRLDLLEMSPLEWQVSQEVKAELQQRPLEKITIDVRLLVGRKR | not soluble |
| MGSDKIHHHHHHMAQIISINDNQRLQLEPLEVPSRLLLGPGPSNAHPSVLQAMNVSPVGHLDPAFLALMDEIQSLLRYVWQTENPLTIAVSGTGTAAMEATIANAVEPGDVVLIGVAGYFGNRLVDMAGRYGADVRTISKPWGEVFSLEELRTALETHRPAILALVHAETSTGARQPLEGVGELCREFGTLLLVDTVTSLGGVPIFLDAWGVDLAYSCSQKGLGCSPGASPFTMSSRAIEKLQRRRTKVANWYLDMNLLGKYWGSERVYHHTAPINLYYALREALRLIAQEGLANCWQRHQKNVEYLWERLEDIGLSLHVEKEYRLPTLTTVCIPDGVDGKAVARRLLNEHNIEVGGGLGELAGKVWRVGLMGFNSRKESVDQLIPALEQVLR | soluble |
| MEPVLFYGVPHGCSFGSIVALEWLGRPYRLCRIEMPLDTGERTYVRLNPARQTPTLLLEDGRALSESLAILQHLAARDLCRKLGYPQGSAEFDELNFALALLHTECHSAWGALFYLEDADATTTARALTRAARAYGRIDKLLGDRKWLAGEGPSVADAYLAGTARWGRELGYFDLQHDFPRLHRHLEKLEQDPAVRFAHAIEDRLPAQSCGEFRGEVTLAEVASRLLA | not soluble |
| MQYCELDLSGQWLDTVYCEENFSDFVFIKFLNPSQFEEKIYCYTLHITKRTLENKRLLLYYEDEFKKHGHDINELVGDGIILRSCWNPRQ | soluble |
| MTGQSTGTGEYSDFVAVFRDRYEKLAGKLRGRVNHRPTDAIENMGGGSDAALIGMVSDIRSTASGHWLVELEDTNGTFPCLVMKDRPIADLVQQLLMDEVIAVEGTLADDAGILFVDSLYFPDVPRTHNPSTADRHVQAALISDVHVGSQEFMEDAWHRFTDWLHTPEAEHVEYLLIAGDMVEGVGIYPEQDKELDIIDIYDQYRAFSEYLKEVPADMEIRMIPGNHDAVRLAEPQPGFDEELRDIMSAHDAQVHSNPSLVTVEGVTVLMYHGVSLDEVIAELPDEEASYEEPHRAMYQLLKKRHVAPQYGGHTRLAPEDRDYLVMEEVPDVFHTGHVHKLGWGEYHNVVALNSGCWQAQTEFQKSVNIDPDAGFAPILDLDTLEMTVRKFS | not soluble |
| MKTSANIATSASGNGLADVLERVLDKGVVIAGDISVSIASTELLNIKIRLLISSVERAKEIGINWWESDPYFSSQNNSLVQANEKLLERVASLESEIKALRSN | not soluble |
| MTNHEQVLTDYLAAFIEELVQAGVKEAIISPGSRSTPLALMMAEHPTLKIYVDVDERSAGFFALGLAKASKRPVVLLCTSGTAAANYFPAVVEANLSQIPLIVLTADRPHELRNVGAPQAMDQLHLYGSHVKDFTDMALPENSDEMLRYAKWHSSRAVDIAMKTPRGPVHLNFPLREPLVPILEPSPFTATGKKHHHVH | not soluble |
| MNHMKKNILFDGLRSVARIGETAFVAARAGIKYATEKPSNAKLMRETFESLGSTYIKLGQFIASTPSLFPREYVEEFQGCLDQTPTLPFSYIQEVLAEEFEGRDLNQIFASIDETPLASASIAQVHAARLTTGEDVVIKVQKPGVETILYTDLNVVHWATKMLEKAIPKVKFASLSEIVEEIKIRMVREVDFIEEAQNLDDFVEYLKITNNQAATAPKVYHQFSTRRILTMERLYGVSLTDFDIVKKFAKDPSQVLITAMNTWFGSLMLCKSFHADLHAGNLMLLEDGRIGFIDFGIVGQLNPQVWTACLAFMDALQKTDYTAMAENMLKMGMTKTQIDTQVLAQDLERLFSGVLLADPQEILASKPSDLNDIMLDMVAVGERHGIKFPRDFALLFKQMLYFDRFMRVLAPYTDIYADQRLKMVQTIEPQSLLKHLEHHHHHH | soluble |
| KKITRPIEKLSDTVSQMAKGQYDTRAKIKTDGEVGDLVNSFNIMADRLEKNIEELEDTARRQEDFTAAFAHELKTPLTSIIGYSDMMRSMDLEKEEISEYSNYIFLQGKRLEKLSFTLMDLISLDKQKIEFNRISTEKMFNDIEKTVEQMLREHNIRFKMSVEPAVIVGNEDLLKSLFMNIIDNGRKAISGQGIIALKAIKTEKGYTVFIQDNGCGMEKSEIKKITEAFYMIDKSRARKEGGAGIGMSLCKKIVSIHNAKWSVRSKPGKGTIISIVFQEGQN | not soluble |
| MGSDKIHHHHHHMLGLIKKKANTLLGIDISSTSVKLLELSRSGGRYKVEAYAVEPLPPNAVVEKNIVELEGVGQALSRVLVKAKTNLKSAVVAVAGSAVITKTIEMEAGLSEDELENQLKIEADQYIPYPLEEVAIDFEVQGLSARNPERVDVLLAACRKENVEVREAALALAGLTAKVVDVEAYALERSYALLSSQLGADTDQLTVAVVDIGATMTTLSVLHNGRTIYTREQLFGGRQLTEEIQRRYGLSVEEAGLAKKQGGLPDDYDSEVLRPFKDAVVQQVSRSLQFFFAAGQFNDVDYIVLAGGTASIQDLDRLIQQKIGTPTLVANPFADMALNGKVNAGALASDAPALMIACGLALRSFD | not soluble |
| MSLKASELKKGFAIISNGKTLLIKDIEVTTPGGRGGSKIYKLRCTDLNTGARVDERYKSDDVLDTVEMNKRPISFSYIDGDEYVFMNNDDYTPYNFKKDEIEDELLFITEEIQGMSVVLVDGEAVAIELPSSVEMVIEETDPSIKGASASSRTKPARMPTGLVVQVPEYIATGDRIVINTAERKFMNRAEGHHHHHH | soluble |
| MIDVFDGQVTTRIALQLLALLAQRPGELRHAKWSEFDEADKVWAIPAGKMKMRRDHFVPLADQAITLLNELRPLTGESEYLFPSLRSWHRPMSENTMNAALRRMGYSGDEMTAHGFRATFSTLANESGLWNPDAIERALAHEERNELEHHHHHH | not soluble |
| MGSDKIHHHHHHMRERTVDYSFCGMVRSRERLARQIVFHHIPKTAGSSFNQILRTLYRDDEVCDAALDDELDEVMADETRRYELFVGHFSFDALHRHFGGATRLTFLRDPVQRCISQYHNWHDASRYSDAWIGRSDTNPDVIKALKMTSEMSLCEFVSSDNLVISDSAQNMMTRYLAPSVEWKKERGYYDAELVEKAKRNLVEYFHFFGLTEQFDRSLVLLAHTLGIRPWERSDALLTNRNPKKASFDSVYNTTPEEGGVLRDYNLMDIELYEFAVKEFNRRFDAGYQKLVECAFEYLADKDTRDMGNAGDFYAFDMTNAVGARGLHFLESTRLPCGADVLGRWTGLEPRAVWEIPLRAGRDSHVVIEVDYIDSVSPEALAPEHFTLNGMPARQHAFSAEGSIQRLRLVFSAGAALAGRMLHTLKLTTPLVRAEDGTRDVGVLLLRLQSYSV | not soluble |
| MTHTLQATNPLDQTAWHAWHFSRNKEAISRTGATSLSATEWISATTLKDAHTFPSLPGRWYKRGGGVVGAHLPPAFATTGTVQLRPGELLIAEDFTLTVIERLGQFALQVFDARNPKRFEFHSIAAFPPSEEWRIEARFFPEPDTVNTAAADGVIVATPTAGWVHFLKGRLDYRLRVTVQKNNLRALFSDNSSTLGVYQHRFVDIPRPDAEGNTIIDFNRAYLPPKALNRKFLCPSPSLNNHLNLTVEAGEKWVVAGGLEHHHHHH | soluble |
| MAHHHHHHMQNSVGDVINLISKSEIRYEGKLHSINTEENTVSLSNVRIYGTEGRKGGGVEEVPPTEQLFEFIVFRGSDIKDLTVFRDSSSPQARDPAIVEVHAPARGRGGRAAAAAPAASATAASSAATRGSRSFYDEAQPYSRGGGGGRRGGYGAGRYNNNNGGGSNNSNSNRNHRGGYGGRGGSGNYRRNYRDYHTGQDFKPADIGATEKFEGDFDFAKCREEFEKKKSEFEKAKEDAKSHAKAYDKSSFFDTISCDQKEKNNMNRAEMRKADTETFGPEMVSSMRGFRRGRGGRGRYQQR | not soluble |
| MSLEHILLPLDLSEVSKPLAISVAELASRHKSRVTLLHVIEEAMVIHVAAGYDVSSLIRSIEKNAREKLDKIKKLMMEKGANVVVYEDIPVGNPGTVISEVAEEVGATEIVMGSKGLGIFRILPLGSTVRETVKISRKPVIRLKTYKENGHVKVAYSPMLFRKILVGADRNTSKSMIDYAVNAASTDDGKVILAHIIEPPLEEPSYEVKNVFKYGEKAGEERGVEVEIVVARGRPDKMLTAIASQMDASSVLVGRTVERRLSELILGSTLDRLMTLCELPLIVYPLEGHHHHHH | soluble |
| MASGKVRCTRKLRSWIVEQVESGHFPGVCWDDAAKTMFRIPWKHAGKQDFREDQDAAIFKAWALFKEKHKDGDIGHPAVWKTRLRCALNKSSEFEEVPERGRMDVAEPYKVYRILPAGTLPNQPRNQKSPCKRSISCVSPEREENMENGRTNGVVNHSDSGSNIGGGGNGSNRSDSNSNCNSELEEGAGTTEATIREDPVFLEHQLPLNSDYSLLLTFIYGGRVVGKTQVHSLDCRLVAERSDSESSMEQVEFPKPDPLEPTQHLLNQLDRGVLVASNSRGLFVQRLCPIPISWNAPEAPPGPGPHLLPSNKCVELFKTTYFCRDLAQYFQGQGPPPKFQATLHFWEESPGSSHSQENLITVQMEQAFARHLLEKIPEEEKAALFLLQHTEQSPSALGH | soluble |
| MSGAEQKVAYSLVSSGSLMSVNPGMARWIKELFCHNERVVLTGDWKHGFLSLTAVGATNVGSIRIHFN | not soluble |
